According to paper doi:10.1101/2020.10.21.349357 (bioRxiv, 2020):

Tests used:
linear tetra-ubiquitin = linear tetra-ubiquitin (UniProt P0CG48 1-76; P0CG48 1-76; P0CG48 1-76; P0CG48 1-76); assay: co-IP
linear hepta-ubiquitin = linear hepta-ubiquitin (UniProt P0CG48 1-76; P0CG48 1-76; P0CG48 1-76; P0CG48 1-76; P0CG48 1-76; P0CG48 1-76; …); assay: co-IP
Sequence of linear hepta-ubiquitin (P0CG48 1-532, one chain of several): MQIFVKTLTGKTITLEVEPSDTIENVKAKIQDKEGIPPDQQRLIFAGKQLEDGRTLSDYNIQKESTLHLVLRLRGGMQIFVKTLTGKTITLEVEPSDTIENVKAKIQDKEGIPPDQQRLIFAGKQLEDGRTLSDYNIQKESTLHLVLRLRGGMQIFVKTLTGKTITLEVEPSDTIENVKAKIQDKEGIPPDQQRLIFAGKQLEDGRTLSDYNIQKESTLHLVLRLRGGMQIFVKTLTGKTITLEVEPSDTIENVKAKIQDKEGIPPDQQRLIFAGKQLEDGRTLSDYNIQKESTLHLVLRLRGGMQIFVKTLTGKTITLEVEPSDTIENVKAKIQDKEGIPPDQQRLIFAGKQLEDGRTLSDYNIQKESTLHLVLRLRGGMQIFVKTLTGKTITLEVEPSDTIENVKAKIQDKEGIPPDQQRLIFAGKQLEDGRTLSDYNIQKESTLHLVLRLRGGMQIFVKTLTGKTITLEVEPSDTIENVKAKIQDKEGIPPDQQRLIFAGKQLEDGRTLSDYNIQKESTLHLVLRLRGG

Sequence of linear tetra-ubiquitin (P0CG48 1-304, one chain of several): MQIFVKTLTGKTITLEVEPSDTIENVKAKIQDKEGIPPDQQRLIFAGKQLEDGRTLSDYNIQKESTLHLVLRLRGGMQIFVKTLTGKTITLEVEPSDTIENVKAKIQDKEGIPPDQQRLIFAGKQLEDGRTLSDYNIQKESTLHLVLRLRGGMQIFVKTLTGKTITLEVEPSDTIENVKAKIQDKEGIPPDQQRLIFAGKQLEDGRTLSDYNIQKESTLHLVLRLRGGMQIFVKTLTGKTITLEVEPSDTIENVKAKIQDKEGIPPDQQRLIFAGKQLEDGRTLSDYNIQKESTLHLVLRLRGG

- binding result (linear tetra-ubiquitin): binds
- binding result (linear hepta-ubiquitin): binds
B1: HA-tagged N4BP1 (full length) (natural protein, human, UniProt O75113 1-896, looked up)
chain: MAARAVLDEFTAPAEKAELLEQSRGRIEGLFGVSLAVLGALGAEEPLPARIWLQLCGAQEAVHSAKEYIKGICEPELEERECYPKDMHCIFVGAESLFLKSLIQDTCADLCILDIGLLGIRGSAEAVVMARSHIQQFVKLFENKENLPSSQKESEVKREFKQFVEAHADNYTMDLLILPTSLKKELLTLTQGEENLFETGDDEVIEMRDSQQTEFTQNAATGLNISRDETVLQEEARNKAGTPVSELTKQMDTVLSSSPDVLFDPINGLTPDEEALSNERICQKRRFSDSEERHTKKQFSLENVQEGEILHDAKTLAGNVIADLSDSSADSENLSPDIKETTEEMEYNILVNFFKTMGYSQEIVEKVIKVYGPSTEPLLLLEEIEKENKRFQEDREFSAGTVYPETNKTKNKGVYSSTNELTTDSTPKKTQAHTQQNMVEKFSQLPFKVEAKPCTSNCRINTFRTVPIEQKHEVWGSNQNYICNTDPETDGLSPSVASPSPKEVNFVSRGASSHQPRVPLFPENGLHQQPEPLLPNNMKSACEKRLGCCSSPHSKPNCSTLSPPMPLPQLLPSVTDARSAGPSDHIDSSVTGVQRFRDTLKIPYKLELKNEPGRTDLKHIVIDGSNVAITHGLKKFFSCRGIAIAVEYFWKLGNRNITVFVPQWRTRRDPNVTEQHFLTQLQELGILSLTPARMVFGERIASHDDRFLLHLADKTGGIIVTNDNFREFVNESVSWREIITKRLLQYTFVGDIFMVPDDPLGRSGPRLEEFLQKEVCLRDMQPLLSALPNVGMFDPSFRVPGTQAASTSHQPPTRIQGAPSSHWLPQQPHFPLLPALPSLQQNLPMPAQRSSAETNELREALLKIFPDSEQRLKIDQILVAHPYMKDLNALSAMVLD
